Results on one molecule are retold here after PMC12548284, “SIK2-mediated phosphorylation of GABARAPL2 facilitates autophagosome–lysosome fusion and rescues neurodegeneration in an Alzheimer’s disease model” (Translational Neurodegeneration, 2025).

In the assay the target is T1, GST-GABARAPL2 (UniProt P60520 1-117).
T1 construct: GABARAPL2 of the bought GST fusion protein; source: bought: Proteintech (Ag1155)
In words: pull-down; competitive GST pull-down: GST-GABARAPL2 on glutathione-conjugated Sepharose beads, SIK2 protein in solution, LIR peptide at 0, 5, 10, 20, 40 μmol/L; immunoblot. Conditions: both partners purified. On the technique in general: Immunoblotting shows a protein as a band on a membrane.

T1 sequence (P60520 whole entry, the tested form may be a part): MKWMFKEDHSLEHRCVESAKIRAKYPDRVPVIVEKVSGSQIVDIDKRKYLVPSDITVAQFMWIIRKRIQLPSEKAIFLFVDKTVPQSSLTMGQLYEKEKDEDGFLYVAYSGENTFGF

B1: LC3-interacting region (LIR) 326–333 (FAAIYFLL) peptide (peptide)
peptide: FAAIYFLL
notes: SIK2 residues 326-333, the canonical LIR motif within 290-550; also called LIR peptide; source: synthetic peptide; bought: Sangon Biotech
In the case of B1, the binding result is “binds”.
